Experimental data as given in patent US20130251714A1.

Molecular target: CXCR5 (human; form in the assay not stated) (UniProt P32302)
Assay: side-by-side comparison; method not stated

- fold higher affinity than the commercial antibodies: 10 fold
- off rate, times better than the other antibodies: 100 times
B1: Mouse anti-hCXCR5 mAb clone 16D7 (antibody, V domains shown)
VH: QVQLKESGPGLVAPSQSLSITCTVSGFSLIDYGVNWIRQPPGKGLEWLGVIWGDGTTYYNSALKSRLSIRKDNSQSQVFLKMNSLQTDDTAMYYCARIVYWGQGTLVTVSA
VL: DIVMTQAAPSVAVTPRESVSISCRSSKSLLHSSGKTYLYWFLQRPGQSPQLLIYRMSNLASGVPDRFSGSGSGTAFTLRISRVEAEDVGVYYCMQHLEYPYTFGGGTKLEIK
